Experimental data published in the Human Domainome abundance scans (Beltran et al. 2025).
± gives the uncertainty stated by the source.

B1: Segment polarity protein dishevelled homolog DVL-3, residues 2 to 81; numbered along this chain, Q92997 (parent)
chain: GETKIIYHLDGQETPYLVKLPLPAERVTLADFKGVLQRPSYKFFFKSMDDDFGVVKEEISDDNAKLPCFNGRVVSWLVSA

Variants of: B1
Assay: abundance fitness (aPCA) (normalised: wild type 0, dead -1); higher = more abundant; growth selection in yeast, the domain comes from the species named
Settings: Homo sapiens

Going from GETKIIYHLDGQETPYLVKLPLPAERVTLADFKGVLQRPSYKFFFKSMDDDFGVVKEEISDDNAKLPCFNGRVVSWLVST [A80T] to GETKIIYHLDGQETPYLVKLPLPAERVTLADFKGVLQRPSYKFFFKSMDDDFGVVKEEISDDNAKLPCFNGRVVSWLVSF [A80F], the abundance fitness falls from 0.185 ± 0.089 to -0.098 ± 0.14.

GETKIIYHLDGQETPYLVKLPLPAERVTLADFKGVLQRPSYKFFFKSMDDDFGVVKEEISDDNAKLPCFNGRVVSWLVSY [A80Y] and GETKIIYHLDGQETPYLVKLPLPAERVTLADFKGVLQRPSYKFFFKSMDDDFGVVKEEISDDNAKLPCFNGRVVSWLVSH [A80H] are within error of each other in abundance fitness: -0.405 ± 0.19 for the first, -0.089 ± 0.15 for the second.

GETKIIYHLDGQETPYLVKLPLPAERVTLADFKGVLQRPSYKFFFKSMDDDFGVVKEEISDDNAKLPCFNGRVVSWLVSC [A80C] and GETKIIYHLDGQETPYLVKLPLPAERVTLADFKGVLQRPSYKFFFKSMDDDFGVVKEEISDDNAKLPCFNGRVVSWLVSR [A80R] are within error of each other in abundance fitness: -0.015 ± 0.1 for the first, -0.164 ± 0.14 for the second.

GETKIIYHLDGQETPYLVKLPLPAERVTLADFKGVLQRPSYKFFFKSMDDDFGVVKEEISDDNAKLPCFNGRVVSWLVSV [A80V] and GETKIIYHLDGQETPYLVKLPLPAERVTLADFKGVLQRPSYKFFFKSMDDDFGVVKEEISDDNAKLPCFNGRVVSWLVSM [A80M] are within error of each other in abundance fitness: -0.105 ± 0.11 for the first, -0.101 ± 0.26 for the second.

GETKIIYHLDGQETPYLVKLPLPAERVTLADFKGVLQRPSYKFFFKSMDDDFGVVKEEISDDNAKLPCFNGRVVSWLVSE [A80E] and GETKIIYHLDGQETPYLVKLPLPAERVTLADFKGVLQRPSYKFFFKSMDDDFGVVKEEISDDNAKLPCFNGRVVSWLVSL [A80L] are within error of each other in abundance fitness: 0.191 ± 0.33 for the first, -0.239 ± 0.13 for the second.

First: GETKIIYHLDGQETPYLVKLPLPAERVTLADFKGVLQRPSYKFFFKSMDDDFGVVKEEISDDNAKLPCFNGRVVSWLVSS [A80S]
Second: GETKIIYHLDGQETPYLVKLPLPAERVTLADFKGVLQRPSYKFFFKSMDDDFGVVKEEISDDNAKLPCFNGRVVSWLVSD [A80D]
The abundance fitness of the first is lower: 0.088 ± 0.067 for the first, 0.267 ± 0.086 for the second.

GETKIIYHLDGQETPYLVKLPLPAERVTLADFKGVLQRPSYKFFFKSMDDDFGVVKEEISDDNAKLPCFNGRVVSWLVSI [A80I] and GETKIIYHLDGQETPYLVKLPLPAERVTLADFKGVLQRPSYKFFFKSMDDDFGVVKEEISDDNAKLPCFNGRVVSWLVSQ [A80Q] are within error of each other in abundance fitness: -0.004 ± 0.082 for the first, -0.029 ± 0.29 for the second.

GETKIIYHLDGQETPYLVKLPLPAERVTLADFKGVLQRPSYKFFFKSMDDDFGVVKEEISDDNAKLPCFNGRVVSWLVSN [A80N] and GETKIIYHLDGQETPYLVKLPLPAERVTLADFKGVLQRPSYKFFFKSMDDDFGVVKEEISDDNAKLPCFNGRVVSWLVSK [A80K] are within error of each other in abundance fitness: 0.11 ± 0.095 for the first, 0.212 ± 0.21 for the second.

GETKIIYHLDGQETPYLVKLPLPAERVTLADFKGVLQRPSYKFFFKSMDDDFGVVKEEISDDNAKLPCFNGRVVSWLVSG [A80G] and GETKIIYHLDGQETPYLVKLPLPAERVTLADFKGVLQRPSYKFFFKSMDDDFGVVKEEISDDNAKLPCFNGRVVSWLVEA [S79E] are within error of each other in abundance fitness: 0.014 ± 0.091 for the first, 0.002 ± 0.056 for the second.

Compared with GETKIIYHLDGQETPYLVKLPLPAERVTLADFKGVLQRPSYKFFFKSMDDDFGVVKEEISDDNAKLPCFNGRVVSWLVKA [S79K], GETKIIYHLDGQETPYLVKLPLPAERVTLADFKGVLQRPSYKFFFKSMDDDFGVVKEEISDDNAKLPCFNGRVVSWLVFA [S79F] is lower in abundance fitness: -0.204 ± 0.076 for the first, -0.504 ± 0.16 for the second.

Compared with GETKIIYHLDGQETPYLVKLPLPAERVTLADFKGVLQRPSYKFFFKSMDDDFGVVKEEISDDNAKLPCFNGRVVSWLVWA [S79W], GETKIIYHLDGQETPYLVKLPLPAERVTLADFKGVLQRPSYKFFFKSMDDDFGVVKEEISDDNAKLPCFNGRVVSWLVPA [S79P] is higher in abundance fitness: -0.71 ± 0.11 for the first, 0.16 ± 0.069 for the second.

Compared with GETKIIYHLDGQETPYLVKLPLPAERVTLADFKGVLQRPSYKFFFKSMDDDFGVVKEEISDDNAKLPCFNGRVVSWLVRA [S79R], GETKIIYHLDGQETPYLVKLPLPAERVTLADFKGVLQRPSYKFFFKSMDDDFGVVKEEISDDNAKLPCFNGRVVSWLVIA [S79I] is lower in abundance fitness: -0.31 ± 0.055 for the first, -0.652 ± 0.27 for the second.

GETKIIYHLDGQETPYLVKLPLPAERVTLADFKGVLQRPSYKFFFKSMDDDFGVVKEEISDDNAKLPCFNGRVVSWLVCA [S79C] and GETKIIYHLDGQETPYLVKLPLPAERVTLADFKGVLQRPSYKFFFKSMDDDFGVVKEEISDDNAKLPCFNGRVVSWLVTA [S79T] are within error of each other in abundance fitness: -0.228 ± 0.083 for the first, -0.179 ± 0.071 for the second.

GETKIIYHLDGQETPYLVKLPLPAERVTLADFKGVLQRPSYKFFFKSMDDDFGVVKEEISDDNAKLPCFNGRVVSWLVYA [S79Y] and GETKIIYHLDGQETPYLVKLPLPAERVTLADFKGVLQRPSYKFFFKSMDDDFGVVKEEISDDNAKLPCFNGRVVSWLVLA [S79L] are within error of each other in abundance fitness: -0.864 ± 0.18 for the first, -0.67 ± 0.092 for the second.

Compared with GETKIIYHLDGQETPYLVKLPLPAERVTLADFKGVLQRPSYKFFFKSMDDDFGVVKEEISDDNAKLPCFNGRVVSWLVDA [S79D], GETKIIYHLDGQETPYLVKLPLPAERVTLADFKGVLQRPSYKFFFKSMDDDFGVVKEEISDDNAKLPCFNGRVVSWLVAA [S79A] is lower in abundance fitness: 0.079 ± 0.065 for the first, -0.206 ± 0.062 for the second.

GETKIIYHLDGQETPYLVKLPLPAERVTLADFKGVLQRPSYKFFFKSMDDDFGVVKEEISDDNAKLPCFNGRVVSWLVHA [S79H] and GETKIIYHLDGQETPYLVKLPLPAERVTLADFKGVLQRPSYKFFFKSMDDDFGVVKEEISDDNAKLPCFNGRVVSWLVGA [S79G] are within error of each other in abundance fitness: -0.466 ± 0.16 for the first, -0.287 ± 0.054 for the second.

Going from GETKIIYHLDGQETPYLVKLPLPAERVTLADFKGVLQRPSYKFFFKSMDDDFGVVKEEISDDNAKLPCFNGRVVSWLVQA [S79Q] to GETKIIYHLDGQETPYLVKLPLPAERVTLADFKGVLQRPSYKFFFKSMDDDFGVVKEEISDDNAKLPCFNGRVVSWLVMA [S79M], the abundance fitness falls from -0.248 ± 0.098 to -0.556 ± 0.1.

Going from GETKIIYHLDGQETPYLVKLPLPAERVTLADFKGVLQRPSYKFFFKSMDDDFGVVKEEISDDNAKLPCFNGRVVSWLVVA [S79V] to GETKIIYHLDGQETPYLVKLPLPAERVTLADFKGVLQRPSYKFFFKSMDDDFGVVKEEISDDNAKLPCFNGRVVSWLFSA [V78F], the abundance fitness rises from -0.682 ± 0.087 to -0.162 ± 0.079.

Going from GETKIIYHLDGQETPYLVKLPLPAERVTLADFKGVLQRPSYKFFFKSMDDDFGVVKEEISDDNAKLPCFNGRVVSWLMSA [V78M] to GETKIIYHLDGQETPYLVKLPLPAERVTLADFKGVLQRPSYKFFFKSMDDDFGVVKEEISDDNAKLPCFNGRVVSWLGSA [V78G], the abundance fitness falls from -0.19 ± 0.16 to -0.558 ± 0.1.

GETKIIYHLDGQETPYLVKLPLPAERVTLADFKGVLQRPSYKFFFKSMDDDFGVVKEEISDDNAKLPCFNGRVVSWLESA [V78E] and GETKIIYHLDGQETPYLVKLPLPAERVTLADFKGVLQRPSYKFFFKSMDDDFGVVKEEISDDNAKLPCFNGRVVSWLKSA [V78K] are within error of each other in abundance fitness: -0.008 ± 0.099 for the first, -0.105 ± 0.12 for the second.

Compared with GETKIIYHLDGQETPYLVKLPLPAERVTLADFKGVLQRPSYKFFFKSMDDDFGVVKEEISDDNAKLPCFNGRVVSWLYSA [V78Y], GETKIIYHLDGQETPYLVKLPLPAERVTLADFKGVLQRPSYKFFFKSMDDDFGVVKEEISDDNAKLPCFNGRVVSWLSSA [V78S] is lower in abundance fitness: 0.102 ± 0.069 for the first, -0.587 ± 0.091 for the second.

Compared with GETKIIYHLDGQETPYLVKLPLPAERVTLADFKGVLQRPSYKFFFKSMDDDFGVVKEEISDDNAKLPCFNGRVVSWLTSA [V78T], GETKIIYHLDGQETPYLVKLPLPAERVTLADFKGVLQRPSYKFFFKSMDDDFGVVKEEISDDNAKLPCFNGRVVSWLDSA [V78D] is lower in abundance fitness: -0.127 ± 0.084 for the first, -0.708 ± 0.13 for the second.

Compared with GETKIIYHLDGQETPYLVKLPLPAERVTLADFKGVLQRPSYKFFFKSMDDDFGVVKEEISDDNAKLPCFNGRVVSWLRSA [V78R], GETKIIYHLDGQETPYLVKLPLPAERVTLADFKGVLQRPSYKFFFKSMDDDFGVVKEEISDDNAKLPCFNGRVVSWLISA [V78I] is higher in abundance fitness: -0.322 ± 0.1 for the first, -0.139 ± 0.067 for the second.

Compared with GETKIIYHLDGQETPYLVKLPLPAERVTLADFKGVLQRPSYKFFFKSMDDDFGVVKEEISDDNAKLPCFNGRVVSWLCSA [V78C], GETKIIYHLDGQETPYLVKLPLPAERVTLADFKGVLQRPSYKFFFKSMDDDFGVVKEEISDDNAKLPCFNGRVVSWLLSA [V78L] is lower in abundance fitness: -0.131 ± 0.088 for the first, -0.398 ± 0.093 for the second.

GETKIIYHLDGQETPYLVKLPLPAERVTLADFKGVLQRPSYKFFFKSMDDDFGVVKEEISDDNAKLPCFNGRVVSWLQSA [V78Q] and GETKIIYHLDGQETPYLVKLPLPAERVTLADFKGVLQRPSYKFFFKSMDDDFGVVKEEISDDNAKLPCFNGRVVSWLWSA [V78W] are within error of each other in abundance fitness: -0.486 ± 0.21 for the first, -0.228 ± 0.12 for the second.

GETKIIYHLDGQETPYLVKLPLPAERVTLADFKGVLQRPSYKFFFKSMDDDFGVVKEEISDDNAKLPCFNGRVVSWLNSA [V78N] gave an abundance fitness of -0.585 ± 0.1.
